B1: HGFA (hepatocyte growth factor activator) comprising residues Val373-Arg407 (peptide)
chain: VQLSPDLLATLPEPASPGRQACGRRHKKRTFLRPR
B2: soluble form of hepsin encompassing the entire extracellular domain (Arg45-Leu417) and a C-terminal His8 tag (protein)
chain 1: RSDQEPLYPVQVSSADARLMVFDKTEGTWRLLCSSRSNARVAGLSCEEMGFLRALTHSELDVRTAGANGTSGFFCVDEGRLPHTQRLLEVISVCDCPRGRFLAAICQDCGRRKLPVDR
chain 2: not shown
B3: tissue-type plasminogen activator (t-PA) (protein)
chain: SYQVICRDEKTQMIYQQHQSWLRPVLRSNRVEYCWCNSGRAQCHSVPVKSCSEPRCFNGGTCQQALYFSDFVCQCPEGFAGKCCEIDTRATCYEDQGISYRGTWSTAESGAECTNWNSSALAQKPYSGRRPDAIRLGLGNHNYCRNPDRDSKPWCYVFKAGKYSSEFCSTPACSEGNSDCYFGNGSAYRGTHSLTESGASCLPWNSMILIGKVYTAQNPSAQALGLGKHNYCRNPDGDAKPWCHVLKNRRLTWEYCDVPSCSTCGLRQYSQPQFRIKGGLFADIASHPWQAAIFAKHRRSPGERFLCGGILISSCWILSAAHCFQERFPPHHLTVILGRTYRVVPGEEEQKFEVEKYIVHKEFDDDTYDNDIALLQLKSDSSRCAQESSVVRTVCLPPADLQLPDWTECELSGYGKHEALSPFYSERLKEAHVRLYPSSRCTSQHLLNRTVTDNMLCAGDTRSGGPQANLHDACQGDSGGPLVCLNDGRMTLVGIISWGLGCGQKDVPGVYTKVTNYLDWIRDNMRP

What was measured:
[1] = target: pro-HGF (single-chain hepatocyte growth factor), P14210
[2] = target: T1, Lys-plasminogen, P00747
T1 chain: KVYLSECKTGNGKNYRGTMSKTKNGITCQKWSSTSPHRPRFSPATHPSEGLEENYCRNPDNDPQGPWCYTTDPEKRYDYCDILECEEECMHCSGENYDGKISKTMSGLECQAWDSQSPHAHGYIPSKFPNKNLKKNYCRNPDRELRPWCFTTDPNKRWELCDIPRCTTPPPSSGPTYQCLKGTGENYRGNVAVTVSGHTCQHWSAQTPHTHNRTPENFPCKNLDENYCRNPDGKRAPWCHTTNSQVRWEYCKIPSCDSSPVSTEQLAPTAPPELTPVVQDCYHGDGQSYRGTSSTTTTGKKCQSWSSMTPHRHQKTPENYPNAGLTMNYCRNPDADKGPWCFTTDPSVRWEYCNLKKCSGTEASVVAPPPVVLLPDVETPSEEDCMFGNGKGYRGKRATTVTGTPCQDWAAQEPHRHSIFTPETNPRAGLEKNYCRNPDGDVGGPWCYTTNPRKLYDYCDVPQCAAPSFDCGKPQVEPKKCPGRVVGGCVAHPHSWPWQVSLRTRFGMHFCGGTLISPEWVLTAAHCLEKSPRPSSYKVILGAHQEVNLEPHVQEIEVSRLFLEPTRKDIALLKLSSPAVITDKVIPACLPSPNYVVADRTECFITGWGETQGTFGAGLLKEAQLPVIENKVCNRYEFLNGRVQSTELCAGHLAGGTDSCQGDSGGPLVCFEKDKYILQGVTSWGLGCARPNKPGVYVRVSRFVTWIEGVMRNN

Sequence of pro-HGF (single-chain hepatocyte growth factor), P14210 (P14210 32-728): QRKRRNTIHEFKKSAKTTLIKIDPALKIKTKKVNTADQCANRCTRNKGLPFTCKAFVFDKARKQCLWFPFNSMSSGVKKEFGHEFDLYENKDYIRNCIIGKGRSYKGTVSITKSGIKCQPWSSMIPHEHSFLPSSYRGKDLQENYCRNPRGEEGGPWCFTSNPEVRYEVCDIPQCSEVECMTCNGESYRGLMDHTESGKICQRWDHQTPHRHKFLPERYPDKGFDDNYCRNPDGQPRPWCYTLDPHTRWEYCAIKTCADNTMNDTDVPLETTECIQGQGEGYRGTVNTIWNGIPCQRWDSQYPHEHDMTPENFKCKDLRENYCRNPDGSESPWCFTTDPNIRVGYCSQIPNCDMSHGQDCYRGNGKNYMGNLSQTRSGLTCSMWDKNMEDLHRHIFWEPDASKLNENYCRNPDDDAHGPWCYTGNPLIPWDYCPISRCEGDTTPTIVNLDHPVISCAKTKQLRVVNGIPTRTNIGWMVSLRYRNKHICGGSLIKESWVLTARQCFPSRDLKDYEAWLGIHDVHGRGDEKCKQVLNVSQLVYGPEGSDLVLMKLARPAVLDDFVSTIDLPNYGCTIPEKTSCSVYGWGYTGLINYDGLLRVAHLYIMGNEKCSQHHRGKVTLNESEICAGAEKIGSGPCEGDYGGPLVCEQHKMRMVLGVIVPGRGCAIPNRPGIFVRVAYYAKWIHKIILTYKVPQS

| Protein | enzyme concentration achieving complete conversion of 125I-labelled pro-HGF into two-chain HGF (4 h, 37° C., SDS-PAGE) [1] | percent of plasminogen zymogen cleaved after 0.5 h (40 nM t-PA, SDS-PAGE) [2] |
| --- | --- | --- |
| B1 | both enzymes achieving complete conversion of pro-HGF at a concentration of 4-13 nM | – |
| B2 | both enzymes achieving complete conversion of pro-HGF at a concentration of 4-13 nM | – |
| B3 | – | t-PA efficiently processed plasminogen with about 50% of zymogen already cleaved after 0.5 h |
